Laboratory results: the DeepSol protein solubility set

Test: soluble on expression in E. coli; label from the status in PepcDB or PDB records

Soluble on expression in E. coli, soluble:
MHHHHHHHHIGGDFAVVKAKKSLERRGFGVKRGDKIYLHPLEVVYLQIKGIESFGELEDVLSWAESRMEDFSTYYFVYEDLRDRGNKVKIQGEFLLTKKPYLPISERKTIRMEEIAEKARNFDELRLAVVDEESEITYFRVYEPDMMGEQKEELPEIAGVLSDEYVITKQTEIFSRYFYGSEKGDLVTLSLIESLYLLDLGKLNLLNADREELVKRAREVERNFDRRYEVYRNLKERGFVVKTGFKFGSEFRVYRKVESVDDLPHSEYLVDIADSREIRLIDLARAVRLAQNVRKRMVFAYGKNYLCFERVKV, GMTGAVETESMKTVRIREKIKKFLGDRPRNTAEILEHINSTMRHGTTSQQLGNVLSKDKDIVKVGYIKRSGILSGGYDICEWATRNWVAEHCPEWTEGQPIILNEEGDFTLGPLPE, GSHMKEPKLSPKQERFIEEYFINDMNATKAAIAAGYSKNSASAIGAENLQKPAIRARIDARLK, MSGSHHHHHHSSGIEGRSEVVMENVTAFWEEGFGELFEKAKQNNNNRKTSNGDDSLSFSNFSLLGTPVLKDINFKIERGQLLAVAGSTGAGKTSLLMMIMGELEPSEGKIKHSGRISFCSQFSWIMPGTIKENIIFGVSYDEYRYRSVIKACQLEEDISKFAEKDNIVLGEGGITLSGGQRARISLARAVYKDADLYLLDSPFGYLDVLTEKEIFESCVCKLMANKTRILVTSKMEHLKKADKILILHEGSSYFYGTFSELQNLQPDFSSKLMGCDSFDQFSAERRNSILTETLHRFSLEGDAPVSGGGGSGGGGSGGQMTVKDLTAKYTEGGNAILENISFSISPGQRVGLLGRTGSGKSTLLSAFLRLLNTEGEIQIDGVSWDSITLQQWRKAFGVIPQKVFIFSGTFRKNLDPYEQWSDQEIWKVADEVGLRSVIEQFPGKLDFVLVDGGCVLSHGHKQLMCLARSVLSKAKILLLDQPSAHLDPVTYQIIRRTLKQAFADCTVILCEHRIEAMLECQQFLVIEENKVRQYDSIQKLLNERSLFRQAISPSDRVKLFPHRNSSK, TPGDRTGTSKCRKAGCVYFGTPENKGFCTLCFIEY, MAHHHHHHMYAGFPRLNVTEAQETVDLDFELTNEKGCVKVTEFPVPKVVNLSFPAVCALLYNARTATSSRNIFGSVIGLQLQDTVEVTDVKTNPSIDIEEDDRMTEEERMERVRKERKLLDADKAIFENMYNQENLDTNVIGQFVVSSARFNPFSTRTMRKLQELHRESLPAILLTYDPFRTGLLGRPHIRAYTPTAAYYKYDSLVSTERGYQRRRSLAQYAKESGITKEGVLHEIPVKLEVDAFHKLNLMNVPPTAVGDSFKAIQSMAVSNYIEALLSSIRNNTDQLKQKLDYEGNVKDNGNVPVGQDAETMLLMKHVRDQTDHLDALCDSALLYSSLLRDL, MAHHHHHHMASVPFTEEDLHELYTWVDEIPISRQKRNIARDFADGCSVAEILKFFFPKLVDLHNYVPAMSHAKKLDNWNTLNAKVLRKLYFEVPPEEVEDIVAAVPGAIERFLRALRVKVAQIKARRDEMLRMGEIQAHVNAHHVDPSPSQPQPREGGHVRDGGASAATAHRGSGRPSSPAAPAGPVASSRGSSSAGPQAPPRQTQPQRQPTPPLVNEAASLTQALREKDYTIQELRETVAILSEKIVKLEELVRVKDEKLNQYRQKVGRVPA, MTELPLQFAEPDDDLERVRATLYSLDPDGDRTAGVLRDTLDQLYDGQRTGRWNFDQLHKTEKTHMGTLVEINLHREFQFGDGFETDYEIAGVQVDCKFSMSQGAWMLPPESIGHICLVIWASDQQCAWTAGLVKVIPQFLGTANRDLKRRLTPEGRAQVVKLWPDHGKLQENLLLHIPGDVRDQIFSAKSSRGNQHGQARVNELFRRVHGRLIGRAVIATVAQQDDFMKRVRGSGGARSILRPEGIIILGHQDNDPKVANDLGLPVPRKGQVVAARVVPADEGDQRQTAEIQGRRWAVAVPGDPIVEAPVVPRKSAE, MWIVFDVDGVLIDTSESYDMATKLTVEYFLSHLGIKKEVSLEIIRDMRKKGVFSDDFELSEALILMYLSGEDLPKGEGVEYLRQKLGIVLDRKDIERVFNTFYLGEIYPNSIFKFEGLWRKEKRIVDIELLKKAKETYKLGIVTGRDSLEMKLAEEIIRFKFDKVVTRDMFEKPDPRALYEVTQGEEAIYIGDSKVDEELVERYRRTFKGNVTYLMVGRDVNDVNEALKKILFQSYIRLEHHHHHH

Soluble on expression in E. coli, not soluble:
MSLTSYHSHPPKAYRRFESVCTQAPNAIAVVDEGKLVTYQQLQTQVLERSEALIRQGLADHPYMPLMANRCLEYLITMLACCKLGITYVSIEPGTPSKRLIAVLEQLGCNHLLLLGQPTDLRPDPTLTCFRLDDCGTLCYDGPALRPPIRRRLDDASVITVMFTSGTTGLPKGVRISHDGLLNLVDNVQQQVQGKPRSYVHHSSIGFDAALFEVWVPLLTGACVTLQPGAFNIDALDHCVRAASCDVLLLTTSLFHLVAQHRLSMLDAVRVLYVGGEVLKPVHARALLLANPRITLVNGYGPTENTVFSTWYSLNKPEDAERDVMPIGQFLHQVYGKIVDAKLQEVEVGTPGELLLTGANLALGYLDDALTQTRFLQLPEGTYYRTGDYVIEDEHGMLFYQGRIDEQVKIKGFRVEIAEVEHALTQLPGVAQAVVQAHVMNDLEKSLHAFIVLRHGSPTIEESKLMSLLGDRLPHYMVPRRIHYLAELPLTANGKVDKRSLQPPEKAAAAPPQAGSAVLDIWSGILGTRNLQLEHSIYGYGASSLSVVMAHSRINEILGRTTPFDEVARLSTFQEWVQYYATHEDPVTSLRSQHGNEGHHHHHH, MGSDKIHHHHHHMVTIQNDRFTATINEVGAELTHLVDQASHRDLIWNNDLWPKHAPVLFPAIGRSNEDSYLIDGQRYEMPQHGFVSGETFMIVDQTPTAVTLSLTANAATRVYYPFYFELQVTFTLVATGLNLTFSVQNHGQQDLSYSLGSHPAFNVPFEAGEAFTDYELVLDPAPTDLQQFEIVKTPNPYRSGKELPVTTDKGVIKLNYPMFDAGLIILKAPNLAHLTLQSTKSKHSISLNLDDFDYVTLWTKEGAQAPFLCLEPFNGLPDVAGDLRELATKEGNHHVAVGQSETMAYTITVD, MEAKTNTFLLVAERWWNVKKTSVTEDYADDIWRSLERDIFPAIGDISITEIKAHTLVKAVQPVQARGALETVRRLCQRINEVMIYAQNTGLIDAVPSVNIGKAFELEHHHHHH, LVKVKREIIRMDHPAIRPEAGRAPAVDAATLRRWLAQGRDDQGRELVMLDTRNAFEVEVGTFRGALDWRIERFTQFPQAVRDNQAALAGKTVVSFCTGGIRCEKAAIYMAEAGIEHVYQLEGGILKYFEETDGAGFDGACFVFDERVALDAALAPQ, MSNSEPSTSTPSGKTKKRGKKCETSMGKSKKSKNLPRFVKIQPIFSSEKIKETVCEQGIEECKRMLKGHFNAIKDDYDIRVKDELDTDIKDWLKDASSSVNEYRRRLQENLGEGRTIAKFSFKNCEKYEENDYKVSDSTVTWIKPDRTEEGDLMKKFRAPCSRIEVGDISPPMIYWVPIEQSVATPDQLRLTHMPYFGDGIDDGNIYEHLIDMFPDGIHGFSDNWSYVNDWILYKLCRAALKDYQGSPDVFYYTLYRLWPNKSSQREFSSAFPVLCENFAEKGFDPSSLEPWKKTKIAEGAQNLRNPTCYACLAYTCAIHGFKAEIPIEFPNGEFYNAMLPLPNNPENDGKMCSGNCWKSVTMKEVSEVLVPDSEEILQKEVKIYFMKSRIAKMPIEDGALIVNIYVFNTYIPFCEFVKKYVDEDDEESKIRSCRDAYHLMMSMAENVSARRLKMGQPSNRLSIKDRVNNFRRNQLSQEKAKRKLRHDSLRIQALRDGLDAEKLIREDDMRDSQRNSEKVRMTAVTPITACRHAGPCNATAENCACRENGVCSYMCKCDINCSQRFPGCNCAAGQCYTKACQCYRANWECNPMTCNMCKCDAIDSNIIKCRNFGMTRMIQKRTYCGPSKIAGNGLFLLEPAEKDEFITEYTGERISDDEAERRGAIYDRYQCSYIFNIETGGAIDSYKIGNLARFANHDSKNPTCYARTMVVAGEHRIGFYAKRRLEISEELTFDYSYSGEHQIAFRMVQTKERSEKPSRPKSQKLSKPMTSE, MTTNIAANSGGIVFHFLGTGGAQQVPAFGCECEVCQQAQRNESKRRRACCAAITTKDRIILIDAGLPELSPYLLPYPQRHILLTHYHMDHVQGLFPLRWGYGEPIPVFGPPDEAGCDDLFKHPGILHFQKPLMAFQPFELDGIRITPVPLIHSKLTYGYLIQTPTHTLAYLTDTIGLPPETTQFLASHTLDYAIVDCSHPPQTMLPRNHNDITRALEIFTQLNPKQLYLTHISHELDRWLQTQTLLPENVHAAYDGLVLGLLEHHHHHH, MAHHHHHHMNILHKIFTPGSKSKKTLLHCDAELGDRQSHSSSKVSTAVQVKSKLTAASSDDDDCGPLMRSVSMTVVSDPVPSSFKTNSSFANQSRPTQGPASFKSARLANSFSNASCHLERHHQHTAALASSVSRHNQRSLFDKIHSSGSFAVGETTVSGGSFTANGGTVNLWRLPWTQQKVTMCPNCHRPRQRDRTMQVSRASYTLQETTIENGMGDDMSEANEDMSYSDSEGMGGPMSDSVTCRCGVVSEGDAPLDYDDSAEATEEHPKLFVVETQNPSAVQLPGTIAEASDSEGEGREDVRRSYKLSLVSSPTPTSLRRRAPRVQPLLSGASPQTNTASVPKRVTHWLHEQQTSEARVVLKPKAAR, MITDLILHNHPRMKTITLNDNHIAHLNAKNTTKLEYLNLSNNNLLPTNDIDQLISSKHLWHVLVNGINNDPLAQMQYWTAVRNIIDDTNEVTIDLSGLNLTTQPPGLQNFTSINLDNNQFTHFDATNYDRLVKLSLNSNALESINFPQGRNVSITHISMNNNALRNIDIDRLSSVTYFSAAHNQLEFVQLESCEWLQYLNLSHNQLTDIVAGNKNELLLLDLSHNKLTSLHNDLFPNLNTLLINNNLLSEIKIFYSNFCNVQTLNAANNQLKYINLDFLTYLPSIKSLRLDNNKITHIDTNNTSDIGTLFPIIKQSKTLEHHHHHH, MQYINYRENRRRGTADFPLEYYHVTASHPQYVMSFHWHVEFELIRILSGSLTVTIDEIEFLAEAGDSIFIPAGSIHSGIPDDCVYECLVFDMNMLMNKTDSCCRFLRQITDHEVSVQTHYPKICNTIHRTLWTLFDAAASKKEGYQLVVFGAMYQFFGTLFSEGFCKNAPDEEHRSHKRILQLKQALEFMESSYNLPLTLEEISGSVNMSPKYFCRFFHEMTHRTPIDYLNYYRIERACYQLITTNLSITEIAYASGFNDLSYFIKTFKKYKGTTPKKYLKI, MGSDKIHHHHHHMNLKTTLGLLAGRSSHFVLSRLGRGSTLPGKVALQFDKDILQNLAKNYEIVVVTGTNGKTLTTALTVGILKEVYGQVLTNPSGANMITGIATTFLTAKSSKTGKNIAVLEIDEASLSRICDYIQPSLFVITNIFRDQMDRFGEIYTTYNMILDAIRKVPTATVLLNGDSPLFYKPTIPNPIEYFGFDLEKGPAQLAHYNTEGILCPDCQGILKYEHNTYANLGAYICEGCGCKRPDLDYRLTKLVELTNNRSRFVIDGQEYGIQIGGLYNIYNALAAVAIARFLGADSQLIKQGFDKSRAVFGRQETFHIGDKECTLVLIKNPVGATQAIEMIKLAPYPFSLSVLLNANYADGIDTSWIWDADFEQITDMDIPEINAGGVRHSEIARRLRVTGYPAEKITETSNLEQVLKTIENQDCKHAYILATYTAMLEFRELLASRQIVRKEMN, MQKSVLITGCSSGIGLDSALELKRQGFQILAGCRKPDDVARMNSMGFTGVLIDLDSPESVDRAADEVIALTDNRLYGIFNNAGYGVYGPLSTISREQMEQQFSSNFFGAHQLTMRLLPAMLPHGEGRIVMTSSVMGLISTPGRGAYAASKYALEAWSDALRMELRHTGIKVSLIEPGPIRTRFTDNVNQTQRDKPVENPGIAARFTRDPDAVVAKVRHAFASDKPRLRYPVTLVTWAVMALKRILPGRMLDKILQS
